In test [1] the target is human HER2 on cells (human) (UniProt P04626).
Test [2] deals with HER2 extracellular domain (ECD) (UniProt P04626). Description: HER2 KD relative to 4D5 (WT); assay not stated.
Test [3] has the same target. In words: HER2 binding affinity of the HER2 arm; assay and form of HER2 not stated on the sheet or in the legend.

Experimental findings from patent US20200299408A1 are described below.

One may read the Kd as the free concentration of one partner at which half of the binding sites on the other are occupied at equilibrium, for simple one-to-one binding.

In test [1], hu4D5.v5 (bispecific antibody) returned an EC50 of SKBR3 target cell killing of 0.075 µg/mL and an SKBR3 EC50 fold (relative to 4D5) of 9900 fold. The substance further gave a KD fold in test [2] of 31.2 fold. This substance had a Kd in test [3] of 15.6 nM.
